Data on one molecule can be found in patent US8691225B2, “Antibodies against the ectodomain of ErbB3 and uses thereof” (Merrimack Pharmaceuticals, Inc., priority 2007, dated 2014).

One assay has as its target ErbB3 (Homo sapiens, UniProt P21860). The assay can be described thus: Surface Plasmon Resonance Assay. It counts as binding.
A further assay concerns the target TGF-α (Homo sapiens, UniProt P01135). The assay can be described thus: binding specificity ELISA. The following applies: IgG2 isotype of Ab #6. As to the method:
(§1) 96-well NUNC MAXISORB plates are coated by overnight incubation at room temperature with 50 μl/well of 5 μg/ml of individual proteins. The proteins are recombinant human EGFR ectodomain, BSA, recombinant human ErbB3 ectodomain and TGF-α. The next morning, plates are washed 3 times with […] of PBST (0.05% Tween-20) in the BIOTEK plate washer. The wells are blocked for 1 hr at room temperature with 2% BSA in PBS and washed again as before. […] All samples are run in duplicate and incubated for 2 hrs at 4° C. on a plate shaker. The plates are washed again as before. 50 μl of human IgG-Fc detection antibody (HRP conjugated, Bethyl Laboratories, Inc; 1:75000 dilution in 2% BSA, PBST) is added and the plates are incubated for 1 hr at room temperature. The plates are washed again as before. 50 μL of SUPERSIGNAL ELISA Pico substrate is added and the plate is read on the FUSION plate reader (Packard/Perkin Elmer). The data is analyzed using the EXCEL program. Duplicate samples are averaged and the error bars represent the standard deviation between the two replicates.
On the technique in general: ELISA stands for enzyme-linked immunosorbent assay.

Assay [1] deals with T1, recombinant human EGFR ectodomain (Homo sapiens, UniProt P00533).
T1 construct: recombinant human EGFR ectodomain
Put plainly: binding specificity ELISA. The following applies: IgG2 isotype of Ab #6. On the procedure:
as §1

Assay [2] concerns the target T2, recombinant human ErbB3 ectodomain (Homo sapiens, UniProt P21860).
T2 construct: recombinant human ErbB3 ectodomain
The assay can be described thus: binding specificity ELISA. As to conditions: IgG2 isotype of Ab #6. As to the method:
as §1

For another assay, the target named is T3, ErbB3 in MALME-3M cells (Homo sapiens, UniProt P21860).
T3 construct: ErbB3 expressed on MALME-3M melanoma cells; host or cells: MALME-3M melanoma cells
The assay can be described thus: total ErbB3 levels in MALME-3M cells in vitro by ELISA. As to conditions: 24 hours. Format: cell-based. On the procedure:
MALME-3M cells are seeded in 96 well tissue culture plates and grown in RPMI-1640 media supplemented with antibiotics, 2 mM L-glutamine and 10% fetal bovine serum (FBS) for 24 hours at 37° C. and 5% carbon dioxide. Media are then switched to the same medium without FBS and with and without the antibody at concentrations of 1 uM, 250 nM, 63 nM, 16 nM, 4.0 nM, 1.0 nM, 240 pM, 61 pM and 15 pM. Medium containing no FBS or antibody is used as control. Cells are grown for 24 hours at 37° C. and 5% carbon dioxide, washed with cold PBS, then harvested with mammalian protein extract (MPER) lysis buffer (Pierce, 78505) to which 150 mM NaCl, 5 mM sodium pyrophosphate, 10 uM bpV (phen), 50 uM phenylarsine, 1 mM sodium orthovanadate, and protease inhibitor cocktail (Sigma, P2714) is added. Cell lysates are diluted two-fold with 4% bovine serum albumin in PBST (0.1% tween-20), then analyzed by ELISA with mouse anti-human ErbB3 capture antibody and biotinylated mouse anti-human ErbB3 secondary detection antibody. Signal is generated with streptavidin conjugated to horseradish-peroxidase reacted with SUPERSIGNAL ELISA Pico chemiluminescent substrate (Pierce, 37070). ELISAs are quantitated using a luminometer.

Assay [3] has as its target T4, ErbB3 receptors on MALME-3M cells (Homo sapiens, UniProt P21860).
T4 construct: ErbB3 expressed on MALME-3M melanoma cells; host or cells: MALME-3M melanoma cells
Put plainly: downregulation of ErbB3 receptors on MALME-3M cells by FACS. Format: cell-based. As to conditions: 100 nM. On the procedure: MALME-3M cells are trypsinized from a 15 cm dish and washed once with RPMI+10% FBS. Cell pellets are resuspended at a density of 1×10^6 cells per ml. Two aliquots of 2×10^5 cells are added to separate wells in a 12-well tissue culture plate and each resuspended in a final volume of 800 ul RPMI+10% FBS.
Cells are washed twice with 1 ml BD stain buffer and incubated with 100 ul of a 1:500 dilution of Alexa 647-labeled goat anti-human Alexa 647 for 45 minutes on ice. Cells are then washed and resuspended in 300 ul BD stain buffer+0.5 ug/ml propidium iodide. Analysis of 10,000 cells is done in a FACSCALIBUR flow cytometer using the FL4 channel.

Assay [4] has as its system phosphorylated ErbB3 (pErbB3) in AdrR ovarian xenografts. Put plainly: ErbB3 phosphorylation in AdrR ovarian xenografts in vivo. On the set-up: species or system mouse. As to conditions: pErbB3 in ng/mg of total protein. As to the method: The samples are pulverized substantially as described in Example 5 supra, with respect to FIG. 8. The BCA assay is performed substantially as set forth in the Materials and Methods section supra, and the ELISA assay is performed substantially as described in Example 5 supra with respect to FIG. 8.

For assay [5], the system named is ErbB3 phosphorylation in ovarian AdrR cells. Put plainly: BTC or HRG induced ErbB3 phosphorylation in AdrR cells in vitro. Format: cell-based, human. On the procedure: Following pre incubation, the media are removed and the cells are stimulated for 5 minutes at 37° C., 5% CO2 with 50 nM BTC or 333 nM TGF-α. HRG controls (5 minutes, 5 nM), 10% serum and 0% serum controls are also used. Cells are washed with 1× cold PBS and lysed in 30 μl cold lysis buffer (M-PER buffer (Pierce) plus sodium vanadate (NaVO4, Sigma), 2-glycerophosphate, phenylarsine oxide, BpV and protease inhibitors) by incubating on ice for 30 minutes. Lysates are stored overnight at −80° C.

The subject of the next assay is renal (ACHN) xenograft. The assay can be described thus: xenograft tumor growth in nude mice. Format: in vivo, mouse. The following applies: 600 ug Q3d versus 300 ug.
For assay [6], the target named is T5, epiregulin binding to AdrR cells (Homo sapiens, UniProt P21860).
T5 construct: host or cells: AdrR (NCI/AdrR) ovarian cancer cells
The assay can be described thus: biotinylated epiregulin binding to AdrR cells by FACS. As to conditions: 12.5 μM antibodies, 1 μM Epi. Format: cell-based. (In general: In flow cytometry, cells or beads pass a laser one at a time.)
Method: After 30 minutes, 50 μl of 2 μM biotinylated Epi is added to the cells and incubated for another 30 minutes on ice. This yields a final concentration of 12.5 μM antibodies and 1 μM Epi. Cells are then washed twice with 500 μl BD stain buffer and incubated with 100 μl of a 1:200 dilution of streptavidin-PE (PE=phycoerythrin, a fluorescent protein) (Invitrogen) in BD stain buffer for 45 minutes. Finally, cells are washed twice, resuspended in 300 μl of BD stain buffer and analyzed in a FACSCALIBUR flow cytometer. As a positive control, 1×10^5 AdrR cells are incubated with 1 μM Epi for 30 minutes on ice, washed twice and incubated with a 1:200 dilution of streptavidin-PE for 45 minutes. To assess background staining from the streptavidin-PE conjugate, cells are incubated with 100 μl of a 1:200 dilution of streptavidin-PE only for 45 minutes.

Assay [7] deals with HB-EGF binding to AdrR cells. Put plainly: biotinylated HB-EGF binding to AdrR cells by FACS. Format: cell-based, human. The following applies: 12.5 μM antibodies, 200 nM HB-EGF. As to the method:
After 30 minutes, 50 μl of 400 nM biotinylated HB-EGF is added to the cells and incubated for another 30 minutes on ice. This yields a final concentration of 12.5 μM antibodies and 200 nM HB-EGF. Cells are then washed twice with 500 μl BD stain buffer and incubated with 100 μl of a 1:200 dilution of streptavidin-PE (PE=phycoerythrin) (Invitrogen) in BD stain buffer for 45 minutes. Finally, cells are washed twice, resuspended in 300 μl of BD stain buffer and analyzed in a FACSCALIBUR flow cytometer. As a positive control, 1×10^5 AdrR cells are incubated with 200 nM HB-EGF for 30 minutes on ice, washed twice and incubated with a 1:200 dilution of streptavidin-PE for 45 minutes. To assess background staining from the streptavidin-PE conjugate, cells are incubated with 100 μl of a 1:200 dilution of streptavidin-PE only for 45 minutes.

B1: Ab #6: human anti-ErbB3 antibody from Fab-phage library, CDRs SEQ ID NOs:7-12; used as IgG1 and IgG2 isotypes; in phase I trials as MM-121 (antibody, V domains shown)
VH: EVQLLESGGGLVQPGGSLRLSCAASGFTFSHYVMAWVRQAPGKGLEWVSSISSSGGWTLYADSVKGRFTISRDNSKNTLYLQMNSLRAEDTAVYYCTRGLKMATIFDYWGQGTLVTVSS
VL: QSALTQPASVSGSPGQSITISCTGTSSDVGSYNVVSWYQQHPGKAPKLIIYEVSQRPSGVSNRFSGSKSGNTASLTISGLQTEDEADYYCCSYAGSSIFVIFGGGTKVTVL
B1: in the assay with ErbB3, the “competition with HRG for binding to ErbB3” value was “competes with HRG for binding to ErbB3”. Moreover, the “binding in ELISA” value with TGF-α is listed as “did not show any appreciable binding”; in [1] it was “did not show any appreciable binding”; in assay [2], “bound recombinant ErbB3”. Besides, the “decrease of total ErbB3 levels” value with ErbB3 in MALME-3M cells was “about 46.9%”. The “downregulation of ErbB3 on MALME-3M cells” value is on record as “about 62%” in assay [3] (IgG1 isotype) and “about 66%” in assay [3] (IgG2 isotype). The “inhibition of ErbB3 phosphorylation in vivo” value in assay [4] is “significantly inhibited ErbB3 phosphorylation”. For the same molecule, the “inhibition of betacellulin-mediated phosphorylation of ErbB3” value in assay [5] (BTC stimulation) is given as “significantly inhibited”. In assay [5] (HRG stimulation), the “inhibition of heregulin-mediated phosphorylation of ErbB3” value was “significantly inhibited”. The “inhibition of tumor growth” value in the assay with renal (ACHN) xenograft is recorded as “further elevated”. In addition, the “inhibition of epiregulin binding to AdrR cells” value in assay [6] is reported as “inhibited”. Also, the “inhibition of HB-EGF binding to AdrR cells” value in assay [7] is on record as “does not inhibit this binding”.
